Measurements reported in patent US20030096753A1 (published 2003).

Tests used:
[1] = molecular target: 7S NGF (complex of 2.5S (β-NGF) and γ NGF); assay: cell-based or functional assay
[2] = molecular target: T1, Purified recombinant human NGF (human, UniProt P01138 122-241, limits assumed, radioiodinated with 125I (lactoperoxidase method) where used as tracer); assay: competitive binding assay, 125I-NGF on A875 cells; reference TrkAIg1,2
T1 construct: also called unlabeled human NGF
Protocol: (§1) The binding affinity of ¹²⁵I-NGF to the Ig-like domains of TrkA was determined by a competitive binding assay using the melanoma cell line A875 American Tissue Culture Collection (ATCC) which expresses the NGF receptor p75^NGFR.
(§2) Purified recombinant human NGF was radioiodinated with I¹²⁵ using a lactoperoxidase method and equilibrium binding with [¹²⁵I]-NGF was carried out (Treanor et al., 1991; Neuroscience Letters 121 p73-76). Briefly A875 cells (10⁶ per ml) were incubated with [¹²⁵I]-NGF (0.14 nM) and serial dilutions of unlabeled human NGF (concentration range: 10⁻⁶ M to 1×10⁻¹¹ M), TrkAIg1,2 (concentration range: 4×10⁻⁶ M to 1×10⁻¹¹ M) or TrkAIg2 (concentration range 5×10⁻⁶ M to 1×10 ⁻¹¹ M). Tubes were shaken vigorously at room temperature for 1 hr. 100 μl aliquots were then layered over 200 μl sucrose (0.15 M in binding buffer) in Beckman tubes. After centrifugation (15 seconds at 20,000 g) bound and free [¹²⁵I]-NGF were separated by freezing the tubes in liquid nitrogen and determining the bound [¹²⁵I]-NGF of the cell pellet. Binding reactions were carried out in triplicate. Counts were corrected for background and specific binding was between 85-87% of total binding. The competitive binding assay (FIG. 9) allowed estimation of the binding affinity of [¹²⁵I]-NGF to the recombinant TrkAIg2 protein. […]

[3] = molecular target: NGF (source and species not stated; used in the BiaCore study and on PC12 cells); assay: SPR (BiaCore-X), TrkAIg2 amine-coupled to the chip, NGF 40 nM to 500 nM as analyte, BiaEval 3.0 fit
Protocol: TrkAIg2 was covalently attached to the surface of the sensor chip by coupling with amine groups on TrkAIg2 to carboxyl groups on the surface using BiaCore Amine Coupling kit and varying concentrations of NGF passed over at a constant flow rate of 20 μl/min for two minutes. Data were collected for a range of NGF concentrations of 1 μM to 1 nM. […] However, data collected for the range 40 nM to 500 nM could be successfully evaluated.

[4] = molecular target: T1, Purified recombinant human NGF; assay: competitive binding assay, 125I-NGF on A875 cells (p75NGFR), numerical fit
Protocol: as §1, §2

[5] = molecular target: T1, Purified recombinant human NGF; assay: displacement binding assays of the two Poros 20HQ peaks

T1 sequence (P01138 122-241 limits assumed): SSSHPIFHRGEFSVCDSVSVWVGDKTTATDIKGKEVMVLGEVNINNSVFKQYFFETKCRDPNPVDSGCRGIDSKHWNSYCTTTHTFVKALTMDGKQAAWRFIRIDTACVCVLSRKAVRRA
7S NGF (complex of 2.5S (β-NGF) and γ NGF), sequence (P01139 122-241, one chain of several): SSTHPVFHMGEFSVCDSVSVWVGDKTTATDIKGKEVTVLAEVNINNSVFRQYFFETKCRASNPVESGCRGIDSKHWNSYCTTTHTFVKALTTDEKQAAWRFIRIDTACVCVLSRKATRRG
NGF (source and species not stated; used in the BiaCore study and on PC12 cells), sequence (chain, as listed by the source): as the sequence (P01138 122-241 limits assumed) above

B1: TrkAIg2 (his TrkAIg2; TrkA Ig-like sub-domain 2 together with the proline rich region, amino acids 253-375; first, active peak from Poros 20HQ) (receptor)
chain: MGSSHHHHHHSSGLVPRGSHMPASVQLHTAVEMHHWCIPFSVDGQPAPSLRWLFNGSVLNETSFIFTEFLEPAANETVRHGCLRLNQPTHVNNGNYTLLAANPFGQASASIMAAFMDNPFEFNPEDPIPDTNSTSGDPVEKKDE
notes: The range 253-375 counts on the mature extracellular domain, not on the precursor; Removal of the His tag is not reported; also called TrkIg2; TrkAIg2 domain
For B1, the “NGF-induced plasma extravasation in rat skin, co-injection” value [1] was 10 fold excess, the “fold IC50 against TrkAIg1,2” value [2] was 3 fold and the Kd [3] was 11.8 nM.

B2: TrkAIg1,2 (the two immunoglobulin-like domains and proline-rich region of TrkA, amino acids 160-375) (receptor)
chain: MGSSHHHHHHSSGLVPRGSHMLEGVPTLKVQVPNASVDVGDDVLLRCQVEGRGLEQAGWILTELEQSATVMKSGGLPSLGLTLANVTSDLNRKNLTCWAENDVGRAEVSVQVNVSFPASVQLHTAVEMHHWCIPFSVDGQPAPSLRWLFNGSVLNETSFIFTEFLEPAANETVRHGCLRLNQPTHVNNGNYTLLAANPFGQASASIMAAFMDNPFEFNPEDPIPDTNSTSGDPVEKKDE
notes: The range counts on the mature extracellular domain; also called TrkAIg1,2 domain
Work on B2 yielded a Kd [4] of 3.3 nM.

B3: TrkAIg1 (his TrkAIg1; TrkA Ig-like sub-domain 1, amino acids 160-252) (receptor)
chain: MGSSHHHHHHSSGLVPRGSHMLEGVPTLKVQVPNASVDVGDDVLLRCQVEGRGLEQAGWILTELEQSATVMKSGGLPSLGLTLANVTSDLNRKNLTCWAENDVGRAEVSVQVNVSF
notes: Two peaks eluted from Poros 20HQ; both were tested in the displacement assay; also called first immunoglobulin-like domain
B3: no binding [5].
